The values below are quoted from earlier work in paper PMC12455044.

Broadly, the Kd is a measure of binding affinity in units of concentration.

The target of this series is thrombin (Homo sapiens) (UniProt P00734).

Consider PAR-1 (from UniProt P25116), for which the Kd is 10 nM.
